The target of assay [1] is lantibiotic subtilomycin (Bacillus subtilis BSn5). Description: tricine-SDS-PAGE; purified subtilomycin on 16% tricine-SDS-PAGE; bands of around 9, 12 and 15 kDa; oligomers of subtilomycin.
Assay [2] addresses Hag (ex), recombinant Hag with the flg22 region replaced by flg22 (Ps) (Bacillus subtilis BSn5 | Pseudomonas syringae). Description: MST; protein labelled with Cy5-NHS ester at fixed concentration, serial 2x dilutions of unlabelled subtilomycin (1 mM set as highest; 500 μM highest final in the legend); PBS pH 8.0; MST power 20%, LED power 60%; Monolith NT.115; constants called ambiguous, based on total subtilomycin concentration.

pKd: −log10 of the molar value. “And” between values parts separate entries of the source, which are not always exact repeats. Equal values may be shown once.

Take lantibiotic subtilomycin (peptide): in assay [1], the stoichiometry N is 3 and 4 and 5. The pKd in assay [2] was 4.09.

As a reminder, the stoichiometry N is the number of molecules, sites or subunits per partner or assembly. One may read the pKd as the Kd on a negative log10 scale, so that one unit is a factor of ten.
